Data reported in IntAct's records for PubMed 24075010.

B1: Myocyte-specific enhancer factor 2 (Drosophila melanogaster (Fruit fly)), P40791 (parent)
chain: MGRKKIQISRITDERNRQVTFNKRKFGVMKKAYELSVLCDCEIALIIFSSSNKLYQYASTDMDRVLLKYTEYNEPHESLTNKNIIEKENKNGVMSPDSPEAETDYTLTPRTEAKYNKIDEEFQNMMQRNQMAIGGAGAPRQLPNSSYTLPVSVPVPGSYGDNLLQASPQMSHTNISPRPSSSETDSGGMSLIIYPSGSMLEMSNGYPHSHSPLVGSPSPGPSPGIAHHLSIKQQSPGSQNGRASNLRVVIPPTIAPIPPNMSAPDDVGYADQRQSQTSLNTPVVTLQTPIPALTSYSFGAQDFSSSGVMNSADIMSLNTWHQGLVPHSSLSHLAVSNSTPPPATSPVSIKVKAEPQSPPRDLSASGHQQNSNGSTGSGGSSSSTSSNASGGAGGGGAVSAANVITHLNNVSVLAGGPSGQGGGGGGGGSNGNVEQATNLSVLSHAQQHHLGMPNSRPSSTGHITPTPGHDKYEGYPYRALMGHNPRWNLNFAGAPSSDQDVRLAAVAVQQQQQQPHQQQQLGDYDAPNHKRPRISGGWGT
partner: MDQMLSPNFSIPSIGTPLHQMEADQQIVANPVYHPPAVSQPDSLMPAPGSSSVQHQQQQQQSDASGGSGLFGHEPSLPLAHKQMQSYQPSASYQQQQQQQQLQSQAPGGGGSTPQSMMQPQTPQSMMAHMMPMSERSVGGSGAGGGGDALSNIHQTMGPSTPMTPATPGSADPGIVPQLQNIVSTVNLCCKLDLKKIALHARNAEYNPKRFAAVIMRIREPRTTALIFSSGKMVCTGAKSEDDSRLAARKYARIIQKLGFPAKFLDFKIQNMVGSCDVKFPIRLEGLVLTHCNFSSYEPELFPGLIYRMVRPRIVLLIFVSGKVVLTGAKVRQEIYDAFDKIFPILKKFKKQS

Variants of: B1
Conditions: with tbp_drome Tbp

effect of a mutation on the interaction | Variant
increasing interaction strength | T20A
decreasing interaction strength | T20E
